Measurements as given in PMC11952658, “The zinc finger of DNA Ligase 3α binds to nucleosomes via an arginine anchor” (Research Square, 2025).

Biological target: Cy3-labeled human histone nucleosome core particle reconstituted on the Widom 601 sequence (human, Cy3-maleimide on K119C)
Experiment: single-molecule fluorescence imaging on a tethered nucleosome (SMADNE, LUMICKS C-trap); Cy3-labeled undamaged 601 NCP ligated into 6 kb biotinylated DNA handles and tethered between optically trapped streptavidin beads, 4–5 pN tension; tagged proteins from nuclear extract; lifetimes from CRTD; KD from koff, apparent kon and protein concentration
Conditions: one partner purified

B1: Halo 635-ZnF-BRCT LIG3α (domain or fragment)
chain: MAEQRFCVDYAKRGTAGCKKCKEKIVKGVCRIGKVVPNPFSESGGDMKEWYHIKCMFEKLERARATTKKIEDLTELEGWEELEDNEKEQITQHIADLSSKAAGTPKKKAVVQAKLTTTGQVTSPVKGASFVTSTNPRKFSGFSAKPNNSGEAPSSPTPKRSLSSSKCDPEKADFTVVAGDEGSSTTGGSSEENKGPSGSAVSRKAPSKPSASTKKAEGKLSNSNSKDGNMQTAKPSAMKVGEKLATKSSPVKVGEKRKAADETLCQTKVLLDIFTGVRLYLPPSTPDFSRLRRYFVAFDGDLVQEFDMTSATHVLGSRDKNPAAQQVSPEWIWACIRKRRLVAPC
modifications: Janelia Fluor 635 HaloTag ligand on the HaloTag
In the case of B1, the Kd is reported as 1.1 ± 0.3 nM.
